Article PMC9482650, “Quantitative fragmentomics allow affinity mapping of interactomes” (Nature Communications, 2022)

T1: ARHGEF11, O15085
T1 sequence (O15085 42-136, limits assumed, looked up): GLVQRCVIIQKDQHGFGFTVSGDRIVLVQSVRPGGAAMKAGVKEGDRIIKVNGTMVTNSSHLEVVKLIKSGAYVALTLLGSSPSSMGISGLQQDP

T2: DLG3_1, Q92796
T2 sequence (Q92796 125-227, limits assumed, looked up): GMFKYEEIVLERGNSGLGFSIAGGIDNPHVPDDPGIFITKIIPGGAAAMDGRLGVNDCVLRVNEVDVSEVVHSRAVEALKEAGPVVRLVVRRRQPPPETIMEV

T3: RADIL, Q96JH8
T3 sequence (Q96JH8 971-1071, limits assumed, looked up): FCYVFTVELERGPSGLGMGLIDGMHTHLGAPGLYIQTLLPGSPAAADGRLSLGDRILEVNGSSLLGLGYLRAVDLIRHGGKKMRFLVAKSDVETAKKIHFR

T4: TX1BP3, O14907
T4 sequence (O14907 10-122, limits assumed, looked up): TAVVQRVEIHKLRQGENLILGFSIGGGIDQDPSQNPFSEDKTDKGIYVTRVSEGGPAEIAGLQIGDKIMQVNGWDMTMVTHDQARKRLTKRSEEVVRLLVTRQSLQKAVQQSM

T5: MPDZ_5, O75970
T5 sequence (O75970 695-796, limits assumed, looked up): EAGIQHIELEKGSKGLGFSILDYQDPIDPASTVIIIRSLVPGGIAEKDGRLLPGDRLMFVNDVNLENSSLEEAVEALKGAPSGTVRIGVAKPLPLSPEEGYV

T6: CARD11, Q9BXL7
T6 sequence (Q9BXL7 662-765, limits assumed, looked up): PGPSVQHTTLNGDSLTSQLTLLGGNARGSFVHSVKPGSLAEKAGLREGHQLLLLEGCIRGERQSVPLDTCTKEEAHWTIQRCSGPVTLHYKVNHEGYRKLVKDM

T7: MPP2, Q14168
T7 sequence (Q14168 180-250, limits assumed, looked up): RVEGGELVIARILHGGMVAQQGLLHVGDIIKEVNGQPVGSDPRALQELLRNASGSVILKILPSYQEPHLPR

T8: APBA1_1, Q02410
T8 sequence (Q02410 651-752, limits assumed, looked up): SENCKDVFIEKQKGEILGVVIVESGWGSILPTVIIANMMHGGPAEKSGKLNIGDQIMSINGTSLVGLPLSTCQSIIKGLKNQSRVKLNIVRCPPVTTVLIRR

T9: LNX2_2, Q8N448
T9 sequence (Q8N448 334-432, limits assumed, looked up): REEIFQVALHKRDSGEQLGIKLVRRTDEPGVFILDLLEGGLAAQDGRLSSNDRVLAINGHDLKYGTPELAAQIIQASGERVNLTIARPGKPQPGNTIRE

T10: SNTB1, Q13884
T10 sequence (Q13884 107-205, limits assumed, looked up): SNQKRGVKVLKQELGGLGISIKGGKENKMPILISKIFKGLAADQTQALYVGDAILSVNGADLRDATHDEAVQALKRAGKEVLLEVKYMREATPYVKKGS

T11: APBA2_2, Q99767
T11 sequence (Q99767 654-744, limits assumed, looked up): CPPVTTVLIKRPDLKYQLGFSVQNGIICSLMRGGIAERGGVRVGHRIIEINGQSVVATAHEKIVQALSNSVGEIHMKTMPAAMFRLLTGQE

T12: GRIP1_2, Q9Y3R0
T12 sequence (Q9Y3R0 145-248, limits assumed, looked up): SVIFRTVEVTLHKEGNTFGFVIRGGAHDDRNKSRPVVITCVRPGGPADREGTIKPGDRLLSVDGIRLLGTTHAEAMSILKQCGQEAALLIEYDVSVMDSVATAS


What was measured:
Assay in all cases: holdup assay
Set-up in all cases: key: below the threshold = too weak to quantify, mostly under pKd 3.1 to 4
Conditions in all cases: plain residues with an end cap or a label only (N-terminal biotin on a linker: ado-ado)
ARHGEF11, O15085 = target: T1, ARHGEF11, O15085
Inadl_10, Q8NI35 = target: Inadl_10, Q8NI35
DLG4_2, P78352 = target: DLG4_2, P78352
DLG3_1, Q92796 = target: T2, DLG3_1, Q92796
RADIL, Q96JH8 = target: T3, RADIL, Q96JH8
TX1BP3, O14907 = target: T4, TX1BP3, O14907
TJP2_1, Q9UDY2 = target: TJP2_1, Q9UDY2
TJP1_2, Q07157 = target: TJP1_2, Q07157
DLG1_1, Q12959 = target: DLG1_1, Q12959
MAGI3_2, Q5TCQ9 = target: MAGI3_2, Q5TCQ9
MPDZ_5, O75970 = target: T5, MPDZ_5, O75970
DLG2_3, Q15700 = target: DLG2_3, Q15700
AHNAK1, Q09666 = target: AHNAK1, Q09666
LAP2, Q96RT1 = target: LAP2, Q96RT1
PICK1, Q9NRD5 = target: PICK1, Q9NRD5
MAGI2_4, Q86UL8 = target: MAGI2_4, Q86UL8
CARD11, Q9BXL7 = target: T6, CARD11, Q9BXL7
MPP2, Q14168 = target: T7, MPP2, Q14168
APBA1_1, Q02410 = target: T8, APBA1_1, Q02410
PDZRN4_1, Q6ZMN7 = target: PDZRN4_1, Q6ZMN7
LNX1_2, Q8TBB1 = target: LNX1_2, Q8TBB1
LNX2_2, Q8N448 = target: T9, LNX2_2, Q8N448
SNTB1, Q13884 = target: T10, SNTB1, Q13884
APBA2_2, Q99767 = target: T11, APBA2_2, Q99767
DLG1_3, Q12959 = target: DLG1_3, Q12959
GRIP1_2, Q9Y3R0 = target: T12, GRIP1_2, Q9Y3R0

Chain of PICK1, Q9NRD5 (Q9NRD5 17-115): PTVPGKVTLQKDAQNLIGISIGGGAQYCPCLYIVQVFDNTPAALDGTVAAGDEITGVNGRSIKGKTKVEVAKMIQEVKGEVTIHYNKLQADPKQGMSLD
Chain of LNX1_2, Q8TBB1 (Q8TBB1 371-470): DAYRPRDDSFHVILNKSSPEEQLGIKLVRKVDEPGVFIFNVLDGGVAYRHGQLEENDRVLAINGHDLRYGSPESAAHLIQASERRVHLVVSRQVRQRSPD
Chain of MAGI3_2, Q5TCQ9 (Q5TCQ9 398-503): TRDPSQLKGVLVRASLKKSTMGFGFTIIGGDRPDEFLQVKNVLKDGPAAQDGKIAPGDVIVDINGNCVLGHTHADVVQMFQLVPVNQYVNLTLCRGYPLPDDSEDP
Chain of DLG4_2, P78352 (P78352 155-259): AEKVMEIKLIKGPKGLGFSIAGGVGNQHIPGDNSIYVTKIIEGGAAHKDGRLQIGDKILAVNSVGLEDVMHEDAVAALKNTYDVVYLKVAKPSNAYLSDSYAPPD
Chain of TJP2_1, Q9UDY2 (Q9UDY2 24-128): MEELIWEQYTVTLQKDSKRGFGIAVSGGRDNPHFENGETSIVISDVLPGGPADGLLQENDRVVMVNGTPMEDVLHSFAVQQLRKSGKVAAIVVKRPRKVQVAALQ
Chain of MAGI2_4, Q86UL8 (Q86UL8 772-865): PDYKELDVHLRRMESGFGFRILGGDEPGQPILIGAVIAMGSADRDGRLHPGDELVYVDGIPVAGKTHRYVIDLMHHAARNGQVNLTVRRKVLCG
Chain of Inadl_10, Q8NI35 (Q8NI35 1673-1763): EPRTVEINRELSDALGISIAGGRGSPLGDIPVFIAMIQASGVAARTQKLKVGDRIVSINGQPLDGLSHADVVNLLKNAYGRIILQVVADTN
Chain of PDZRN4_1, Q6ZMN7 (Q6ZMN7 213-318): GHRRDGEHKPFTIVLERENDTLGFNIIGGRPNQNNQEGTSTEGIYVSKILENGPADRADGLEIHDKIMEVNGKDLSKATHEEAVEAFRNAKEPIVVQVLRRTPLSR
Chain of TJP1_2, Q07157 (Q07157 181-274): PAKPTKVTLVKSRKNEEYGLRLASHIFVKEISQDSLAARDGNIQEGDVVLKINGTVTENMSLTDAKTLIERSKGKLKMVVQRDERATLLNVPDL
Chain of AHNAK1, Q09666 (Q09666 4-100): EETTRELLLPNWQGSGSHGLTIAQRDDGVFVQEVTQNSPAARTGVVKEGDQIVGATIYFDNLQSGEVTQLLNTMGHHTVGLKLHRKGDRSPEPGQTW
Chain of LAP2, Q96RT1 (Q96RT1 other isoform, or with tags, fused parts or gaps): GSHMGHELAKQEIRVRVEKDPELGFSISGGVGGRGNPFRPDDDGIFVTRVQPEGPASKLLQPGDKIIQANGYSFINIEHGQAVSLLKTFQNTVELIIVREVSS

Binder	pKd (ARHGEF11, O15085)	pKd (Inadl_10, Q8NI35)	pKd (DLG4_2, P78352)	pKd (DLG3_1, Q92796)	pKd (RADIL, Q96JH8)	pKd (TX1BP3, O14907)	pKd (TJP2_1, Q9UDY2)	pKd (TJP1_2, Q07157)	pKd (DLG1_1, Q12959)	pKd (MAGI3_2, Q5TCQ9)	pKd (MPDZ_5, O75970)	pKd (DLG2_3, Q15700)	pKd (AHNAK1, Q09666)	pKd (LAP2, Q96RT1)	pKd (PICK1, Q9NRD5)	pKd (MAGI2_4, Q86UL8)	pKd (CARD11, Q9BXL7)	pKd (MPP2, Q14168)	pKd (APBA1_1, Q02410)	pKd (PDZRN4_1, Q6ZMN7)	also measured
RKPKPSSSCC [RAB9A, P51151]	below the threshold	below the threshold	below the threshold	below the threshold	below the threshold	3.89	below the threshold	below the threshold	below the threshold	below the threshold	below the threshold	3.53	below the threshold	below the threshold	below the threshold	below the threshold	below the threshold	below the threshold	below the threshold	below the threshold	pKd (LNX1_2, Q8TBB1): below the threshold; pKd (LNX2_2, Q8N448): below the threshold; pKd (SNTB1, Q13884): below the threshold; pKd (APBA2_2, Q99767): below the threshold; pKd (DLG1_3, Q12959): below the threshold; pKd (GRIP1_2, Q9Y3R0): below the threshold
ETQVTAETVI [TMEM225B, P0DP42]	below the threshold	below the threshold	4.05	below the threshold	below the threshold	below the threshold	below the threshold	below the threshold	3.91	3.79	below the threshold	3.66	below the threshold	below the threshold	3.97	below the threshold	below the threshold	below the threshold	below the threshold	below the threshold	pKd (LNX1_2, Q8TBB1): below the threshold; pKd (LNX2_2, Q8N448): 4.46; pKd (SNTB1, Q13884): 4.8; pKd (APBA2_2, Q99767): below the threshold; pKd (DLG1_3, Q12959): below the threshold; pKd (GRIP1_2, Q9Y3R0): below the threshold
YRLAQESGLV [ABCC6, O95255]	below the threshold	below the threshold	3.55	below the threshold	4.22	below the threshold	below the threshold	below the threshold	below the threshold	below the threshold	below the threshold	below the threshold	below the threshold	below the threshold	4.19	3.89	below the threshold	below the threshold	below the threshold	below the threshold	pKd (LNX1_2, Q8TBB1): below the threshold; pKd (LNX2_2, Q8N448): below the threshold; pKd (SNTB1, Q13884): 3.57; pKd (APBA2_2, Q99767): below the threshold; pKd (DLG1_3, Q12959): below the threshold; pKd (GRIP1_2, Q9Y3R0): below the threshold

Now from value to binder, other results behind:

pKd (ARHGEF11, O15085)	pKd (Inadl_10, Q8NI35)	pKd (DLG4_2, P78352)	pKd (DLG3_1, Q92796)	pKd (RADIL, Q96JH8)	pKd (TX1BP3, O14907)	pKd (TJP2_1, Q9UDY2)	pKd (TJP1_2, Q07157)	pKd (DLG1_1, Q12959)	pKd (MAGI3_2, Q5TCQ9)	pKd (MPDZ_5, O75970)	pKd (DLG2_3, Q15700)	pKd (AHNAK1, Q09666)	pKd (LAP2, Q96RT1)	pKd (PICK1, Q9NRD5)	pKd (MAGI2_4, Q86UL8)	pKd (CARD11, Q9BXL7)	pKd (MPP2, Q14168)	pKd (APBA1_1, Q02410)	pKd (PDZRN4_1, Q6ZMN7)	Binder	also measured
4.71	3.84	5.22	4.45	4.15	3.75	3.58	below the threshold	4.92	5.21	below the threshold	4.4	below the threshold	below the threshold	4.09	4.92	below the threshold	below the threshold	below the threshold	below the threshold	SGSLKLMTTV [DACT1, Q9NYF0]	pKd (LNX1_2, Q8TBB1): 3.84; pKd (LNX2_2, Q8N448): 4.63; pKd (SNTB1, Q13884): 3.64; pKd (APBA2_2, Q99767): below the threshold; pKd (DLG1_3, Q12959): 3.55; pKd (GRIP1_2, Q9Y3R0): below the threshold
below the threshold	below the threshold	below the threshold	below the threshold	below the threshold	below the threshold	below the threshold	below the threshold	below the threshold	below the threshold	below the threshold	below the threshold	below the threshold	below the threshold	below the threshold	below the threshold	below the threshold	below the threshold	below the threshold	below the threshold	LKVPPEERLI [CRB2, Q5IJ48]	pKd (LNX1_2, Q8TBB1): below the threshold; pKd (LNX2_2, Q8N448): 3.72; pKd (SNTB1, Q13884): below the threshold; pKd (APBA2_2, Q99767): below the threshold; pKd (DLG1_3, Q12959): below the threshold; pKd (GRIP1_2, Q9Y3R0): below the threshold
